Target: T1, B7 Y201A (mouse, UniProt Q00609 38-306, Y201A)
T1 sequence (looked up): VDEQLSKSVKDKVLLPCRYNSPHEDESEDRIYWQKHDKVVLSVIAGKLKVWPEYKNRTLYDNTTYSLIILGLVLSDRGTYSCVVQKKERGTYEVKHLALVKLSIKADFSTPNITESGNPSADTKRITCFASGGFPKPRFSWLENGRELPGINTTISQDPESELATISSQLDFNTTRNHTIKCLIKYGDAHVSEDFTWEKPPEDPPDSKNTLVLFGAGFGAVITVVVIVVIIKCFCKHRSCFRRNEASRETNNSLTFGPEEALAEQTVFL
Test: flow cytometry on cells

B1: CD28Ig (Fc fusion, mouse, UniProt P31041 20-150, looked up)
chain: NKILVKQSPLLVVDSNEVSLSCRYSYNLLAKEFRASLYKGVNSDVEVCVGNGNFTYQPQFRSNAEFNCDGDFDNETVTFRLWNLHVNHTDIYFCKIEFMYPPPYLDNERSNGTIIHIKEKHLCHTQSSPKL
- % wild-type B7 binding (normalised to anti-B7 mAb 10.16A.1): 3%
- MF (mean fluorescence, control subtracted): 1 MF

Reference: paper PMC2191977 (The Journal of Experimental Medicine, 1995)
